The target of this assay is CEACAM1-4L-HA (HA-tagged human CEACAM1) (human) (UniProt P13688).
Chain of UniProt P13688 (P13688 35-526): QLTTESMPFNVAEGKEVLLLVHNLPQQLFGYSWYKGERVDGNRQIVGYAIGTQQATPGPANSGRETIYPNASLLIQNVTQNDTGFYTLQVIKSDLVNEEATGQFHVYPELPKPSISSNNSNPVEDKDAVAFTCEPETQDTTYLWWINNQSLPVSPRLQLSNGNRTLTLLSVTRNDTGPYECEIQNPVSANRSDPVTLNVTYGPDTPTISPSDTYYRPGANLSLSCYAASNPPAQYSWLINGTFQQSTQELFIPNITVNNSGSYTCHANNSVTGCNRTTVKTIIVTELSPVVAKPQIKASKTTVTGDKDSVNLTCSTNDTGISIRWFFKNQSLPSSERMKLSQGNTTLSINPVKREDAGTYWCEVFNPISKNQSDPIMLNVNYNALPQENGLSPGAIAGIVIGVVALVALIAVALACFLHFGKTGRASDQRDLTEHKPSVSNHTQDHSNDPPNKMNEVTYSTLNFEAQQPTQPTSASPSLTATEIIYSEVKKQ

“Opa52 protein of Neisseria gonorrhoeae strain MS11 (natural protein)” gave an internalised OpaCEA-positive gonococci in CEACAM1-transfected 293 cells (gentamicin protection assay, 2 h) of 210000 cfu/ml.

The values above are taken from PMC3029278.
